Each block holds one binder with its values, some of them ahead of it.
Columns and labels:
[1] = target: T1, human Dkk-1 (Dickkopf-related protein 1) (human, UniProt O94907 32-266); test: cell-based or functional assay
T1 sequence (looked up): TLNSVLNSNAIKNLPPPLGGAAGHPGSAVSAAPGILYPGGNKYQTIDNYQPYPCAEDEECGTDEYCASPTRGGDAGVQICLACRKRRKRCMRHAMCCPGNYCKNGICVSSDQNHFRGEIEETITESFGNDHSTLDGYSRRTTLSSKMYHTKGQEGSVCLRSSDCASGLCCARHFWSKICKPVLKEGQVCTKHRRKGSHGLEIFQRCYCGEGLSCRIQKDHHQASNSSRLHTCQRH

[2] = target: T2, human RANKL (receptor activator of nuclear factor kappa-B ligand) (human, UniProt O14788 140-317, limits assumed); test: SPR (Biacore 2000), antibody captured on protein A, antigen as analyte, 1:1 model, average of n=5
T2 construct: Soluble analyte in SPR; soluble hRANKL at 100 ng/mL in the reporter assay; also called hRANKL
T2 sequence (looked up): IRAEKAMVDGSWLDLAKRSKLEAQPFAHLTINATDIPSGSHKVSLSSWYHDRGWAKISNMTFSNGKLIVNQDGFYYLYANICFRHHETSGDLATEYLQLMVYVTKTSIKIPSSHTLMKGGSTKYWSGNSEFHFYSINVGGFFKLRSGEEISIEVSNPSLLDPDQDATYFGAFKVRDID
Procedure: (§1) A CM5 chip (Biacore, pin. BR-100530) containing immobilized protein A (generated using standard NHS-EDC amine coupling) on all four flow cells (Fc) is used to employ a capture methodology. Antibody samples are prepared at 0.2-10 μg/mL by dilution into running buffer. Human Dkk-1 samples are prepared at final concentrations of 100 nM, 50 nM, 25 nM, 12.5 nM, 6.25 nM, 3.125 nM, 1.5625 nM, 0.78125 nM, 0.390625 nM, 0.1953125 nM, and 0 (blank) nM by dilution into running buffer. Human RANKL are prepared at final concentrations of 100 nM, 50 nM, 25 nM, 12.5 nM, 6.25 nM, 3.125 nM, 1.5625 nM, 0.78125 nM, 0.390625 nM, 0.1953125 nM, and 0 (blank) nM by dilution into running buffer.
(§2) Each analysis cycle consists of (1) capturing antibody samples on separate flow cells (Fc2 and Fc3); (2) injection of each human Dkk-1 concentration over all Fc at 50 μL/min for 300 seconds followed by return to buffer flow for 1200 seconds to monitor dissociation phase; (3) injection of each human RANKL concentration over all Fc at 100 μL/min for 150 seconds followed by return to buffer flow for 1800 seconds to monitor dissociation phase; (4) regeneration of chip surfaces with injection of 10 mM glycine, pH 1.5, for 120 seconds at 5 μL/min over all cells; and (5) equilibration of chip surfaces with a 10 μL (60-sec) injection of HBS-EP+. Data are processed using standard double-referencing and fit to a 1:1 binding model using Biacore 2000 Evaluation software, version 2.0.3, to determine the association rate (kₒₙ, M⁻¹s⁻¹ units), dissociation rate (koff, s⁻¹ units), and Rₘₐₓ (RU units). The equilibrium dissociation constant (KD) is calculated from the relationship KD=koff/kₒₙ, and is in molar units.

[3] = target: T2, human RANKL (receptor activator of …); test: cell-based or functional assay
[4] = target: T1, human Dkk-1 (Dickkopf-related protein 1); test: SPR (Biacore 2000), antibody captured on protein A, antigen as analyte, 1:1 model, average of n=3
Procedure: as §1, §2

EC50, restoration of Wnt3a-induced TCF/LEF luciferase luminescence in MC3T3E1/Topflash cells [1]: 6.61 nM
B1: Dkk-1 neutralizing antibody (a Dkk-1 antibody having an IgG4 backbone and the same heavy and light chain variable region sequences as the mAb portion of the … (antibody, V domains shown)
VH: EVQLVESGGGLVQPGGSLRLSCAASGFTFSSYTMSWVRQAPGKGLEWVATISGGGFGTYYPDSVKGRFTISRDNAKNSLYLQMNSLRAEDTAVYYCARPGYNNYYFDIWGQGTTVTVSS
VL: EIVLTQSPATLSLSPGERATLSCHASDSISNSLHWYQQKPGQAPRLLIYYARQSIQGIPARFSGSGSGTDFTLTISSLEPEDFAVYYCQQSESWPLHFGGGTKVEIK

Kd [2]: 0.0874 nM
koff [2]: 4.2e-05 s⁻¹
kon [2]: 530000 M⁻¹ s⁻¹
IC50, reduction of RANKL-induced NF-kB driven luciferase luminescence in HEK293 cells expressing human RANK [3]: 1.2 nM
EC50, restoration of Wnt3a-induced TCF/LEF luciferase luminescence in MC3T3E1/Topflash cells [1]: 5.3 nM
Kd [4]: 0.0357 nM
koff [4]: 6.55e-05 s⁻¹
kon [4]: 1.83e+06 M⁻¹ s⁻¹
B2: exemplified bispecific antibody compound of Table 1 (anti-Dkk-1 IgG4 mAb with anti-RANKL scFv linked at the C-terminus of each heavy chain) (bispecific antibody)
heavy: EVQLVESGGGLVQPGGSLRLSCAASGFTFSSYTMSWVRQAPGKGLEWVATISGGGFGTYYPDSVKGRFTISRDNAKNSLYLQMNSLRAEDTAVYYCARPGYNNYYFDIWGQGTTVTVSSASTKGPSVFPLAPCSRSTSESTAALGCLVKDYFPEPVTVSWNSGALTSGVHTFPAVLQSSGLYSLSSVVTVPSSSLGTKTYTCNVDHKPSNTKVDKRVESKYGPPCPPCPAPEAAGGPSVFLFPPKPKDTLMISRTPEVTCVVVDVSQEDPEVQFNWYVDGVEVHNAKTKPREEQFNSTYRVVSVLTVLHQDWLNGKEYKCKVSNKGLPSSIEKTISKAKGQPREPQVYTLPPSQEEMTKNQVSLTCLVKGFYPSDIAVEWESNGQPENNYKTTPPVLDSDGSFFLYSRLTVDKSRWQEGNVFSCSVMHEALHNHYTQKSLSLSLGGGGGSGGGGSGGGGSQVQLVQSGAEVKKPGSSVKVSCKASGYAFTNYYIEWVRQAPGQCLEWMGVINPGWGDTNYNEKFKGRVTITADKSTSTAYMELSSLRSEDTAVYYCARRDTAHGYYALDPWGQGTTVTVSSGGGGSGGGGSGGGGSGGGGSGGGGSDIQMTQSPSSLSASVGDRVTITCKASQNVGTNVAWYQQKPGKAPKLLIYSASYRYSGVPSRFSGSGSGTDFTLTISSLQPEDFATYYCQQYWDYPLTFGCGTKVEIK
light: EIVLTQSPATLSLSPGERATLSCHASDSISNSLHWYQQKPGQAPRLLIYYARQSIQGIPARFSGSGSGTDFTLTISSLEPEDFAVYYCQQSESWPLHFGGGTKVEIKRTVAAPSVFIFPPSDEQLKSGTASVVCLLNNFYPREAKVQWKVDNALQSGNSQESVTEQDSKDSTYSLSSTLTLSKADYEKHKVYACEVTHQGLSSPVTKSFNRGEC
modifications: glycosylated at asparagine residue 296 of SEQ ID NO: 1
notes: also called Exemplified Bispecific Ab

Reference: patent US20180118840A1 (Eli Lilly, published 2018)
